IntAct's records for PubMed 11734542

B1: Protein phosphatase EYA1 (Mus musculus), P97767 (parent)
chain: MEMQDLTSPHSRLSGSSESPSGPKLDSSHINSTSMTPNGTEVKTEPMSSSEIASTAADGSLDSFSGSALGSSSFSPRPAHPFSPPQIYPSKSYPHILPTPSSQTMAAYGQTQFTTGMQQATAYATYPQPGQPYGISSYGALWAGIKTESGLSQSQSPGQTGFLSYGTSFGTPQPGQAPYSYQMQGSSFTTSSGLYSGNNSLTNSSGFNSSQQDYPSYPGFGQGQYAQYYNSSPYPAHYMTSSNTSPTTPSTNATYQLQEPPSGVTSQAVTDPTAEYSTIHSPSTPIKETDSERLRRGSDGKSRGRGRRNNNPSPPPDSDLERVFIWDLDETIIVFHSLLTGSYANRYGRDPPTSVSLGLRMEEMIFNLADTHLFFNDLEECDQVHIDDVSSDDNGQDLSTYNFGTDGFPAAATSANLCLATGVRGGVDWMRKLAFRYRRVKEIYNTYKNNVGGLLGPAKREAWLQLRAEIEALTDSWLTLALKALSLIHSRTNCVNILVTTTQLIPALAKVLLYGLGIVFPIENIYSATKIGKESCFERIIQRFGRKVVYVVIGDGVEEEQGAKKHAMPFWRVSSHSDLMALHHALELEYL
partner: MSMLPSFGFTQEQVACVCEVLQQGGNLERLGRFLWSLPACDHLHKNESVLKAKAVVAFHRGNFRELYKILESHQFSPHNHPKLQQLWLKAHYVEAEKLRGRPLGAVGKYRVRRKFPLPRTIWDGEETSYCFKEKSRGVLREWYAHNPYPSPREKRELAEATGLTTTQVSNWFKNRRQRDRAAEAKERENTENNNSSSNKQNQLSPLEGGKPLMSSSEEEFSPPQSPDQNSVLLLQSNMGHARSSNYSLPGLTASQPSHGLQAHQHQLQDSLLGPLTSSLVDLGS

Key:
six1_mouse Six1, Q62231 [1] = variants of: B1; settings: with six1_mouse Six1, Q62231
six1_mouse Six1, Q62231 [2] = variants of: B1; settings: with six1_mouse Six1, Q62231; remark: listed apart in the source

Variant	effect of a mutation on the interaction (six1_mouse Six1, Q62231 [1])	effect of a mutation on the interaction (six1_mouse Six1, Q62231 [2])
MEMQDLTSPHSRLSGSSESPSGPKLDSSHINSTSMTPNGTEVKTEPMSSSEIASTAADGSLDSFSGSALGSSSFSPRPAHPFSPPQIYPSKSYPHILPTPSSQTMAAYGQTQFTTGMQQATAYATYPQPGQPYGISSYGALWAGIKTESGLSQSQSPGQTGFLSYGTSFGTPQPGQAPYSYQMQGSSFTTSSGLYSGNNSLTNSSGFNSSQQDYPSYPGFGQGQYAQYYNSSPYPAHYMTSSNTSPTTPSTNATYQLQEPPSGVTSQAVTDPTAEYSTIHSPSTPIKETDSERLRRGSDGKSRGRGRRNNNPSPPPDSDLERVFIWDLDETIIVFHSLLTGSYANRYGRDPPTSVSLGLRMEEMIFNLADTHLFFNDLEECDQVHIDDVSSDDNGQDLSTYNFGTDGFPAAATSANLCLATGVRGGVDWMRKLAFRYRRVKEIYNTYKNNVGGLLGPAKREAWLQLRAEIEALTDSWLTLALKALSLIHSRTNCVNILVTTTQRIPALAKVLLYGLGIVFPIENIYSATKIGKESCFERIIQRFGRKVVYVVIGDGVEEEQGAKKHAMPFWRVSSHSDLMALHHALELEYL [L504R]	disrupting interaction	decreasing interaction
MEMQDLTSPHSRLSGSSESPSGPKLDSSHINSTSMTPNGTEVKTEPMSSSEIASTAADGSLDSFSGSALGSSSFSPRPAHPFSPPQIYPSKSYPHILPTPSSQTMAAYGQTQFTTGMQQATAYATYPQPGQPYGISSYGALWAGIKTESGLSQSQSPGQTGFLSYGTSFGTPQPGQAPYSYQMQGSSFTTSSGLYSGNNSLTNSSGFNSSQQDYPSYPGFGQGQYAQYYNSSPYPAHYMTSSNTSPTTPSTNATYQLQEPPSGVTSQAVTDPTAEYSTIHSPSTPIKETDSERLRRGSDGKSRGRGRRNNNPSPPPDSDLERVFIWDLDETIIVFHSLLTGSYANRYGRDPPTSVSLGLRMEEMIFNLADTHLFFNDLEECDQVHIDDVSSDDNGQDLSTYNFGTDGFPAAATSANLCLATGVRGGVDWMRKLAFRYRRVKEIYNTYKNNVGGLLGPAKREAWLQLRAEIEALTDSWLTLALKALPLIHSRTNCVNILVTTTQLIPALAKVLLYGLGIVFPIENIYSATKIGKESCFERIIQRFGRKVVYVVIGDGVEEEQGAKKHAMPFWRVSSHSDLMALHHALELEYL [S486P]	disrupting interaction	decreasing interaction
MEMQDLTSPHSRLSGSSESPSGPKLDSSHINSTSMTPNGTEVKTEPMSSSEIASTAADGSLDSFSGSALGSSSFSPRPAHPFSPPQIYPSKSYPHILPTPSSQTMAAYGQTQFTTGMQQATAYATYPQPGQPYGISSYGALWAGIKTESGLSQSQSPGQTGFLSYGTSFGTPQPGQAPYSYQMQGSSFTTSSGLYSGNNSLTNSSGFNSSQQDYPSYPGFGQGQYAQYYNSSPYPAHYMTSSNTSPTTPSTNATYQLQEPPSGVTSQAVTDPTAEYSTIHSPSTPIKETDSERLRRGSDGKSRGRGRRNNNPSPPPDSDLERVFIWDLDKTIIVFHSLLTGSYANRYGRDPPTSVSLGLRMEEMIFNLADTHLFFNDLEECDQVHIDDVSSDDNGQDLSTYNFGTDGFPAAATSANLCLATGVRGGVDWMRKLAFRYRRVKEIYNTYKNNVGGLLGPAKREAWLQLRAEIEALTDSWLTLALKALSLIHSRTNCVNILVTTTQLIPALAKVLLYGLGIVFPIENIYSATKIGKESCFERIIQRFGRKVVYVVIGDGVEEEQGAKKHAMPFWRVSSHSDLMALHHALELEYL [E330K]	disrupting interaction	decreasing interaction
